# According to patent publication US20190309072A1 (published 2019):
# Where a chain is given by its changes, count along the chain named.
# T1: cynomolgus monkey ITGa3 on cynomolgus-derived primary kidney epithelial cells (cynomolgus monkey, UniProt A0A2K5VFR2 17-1035)
# T1 chain: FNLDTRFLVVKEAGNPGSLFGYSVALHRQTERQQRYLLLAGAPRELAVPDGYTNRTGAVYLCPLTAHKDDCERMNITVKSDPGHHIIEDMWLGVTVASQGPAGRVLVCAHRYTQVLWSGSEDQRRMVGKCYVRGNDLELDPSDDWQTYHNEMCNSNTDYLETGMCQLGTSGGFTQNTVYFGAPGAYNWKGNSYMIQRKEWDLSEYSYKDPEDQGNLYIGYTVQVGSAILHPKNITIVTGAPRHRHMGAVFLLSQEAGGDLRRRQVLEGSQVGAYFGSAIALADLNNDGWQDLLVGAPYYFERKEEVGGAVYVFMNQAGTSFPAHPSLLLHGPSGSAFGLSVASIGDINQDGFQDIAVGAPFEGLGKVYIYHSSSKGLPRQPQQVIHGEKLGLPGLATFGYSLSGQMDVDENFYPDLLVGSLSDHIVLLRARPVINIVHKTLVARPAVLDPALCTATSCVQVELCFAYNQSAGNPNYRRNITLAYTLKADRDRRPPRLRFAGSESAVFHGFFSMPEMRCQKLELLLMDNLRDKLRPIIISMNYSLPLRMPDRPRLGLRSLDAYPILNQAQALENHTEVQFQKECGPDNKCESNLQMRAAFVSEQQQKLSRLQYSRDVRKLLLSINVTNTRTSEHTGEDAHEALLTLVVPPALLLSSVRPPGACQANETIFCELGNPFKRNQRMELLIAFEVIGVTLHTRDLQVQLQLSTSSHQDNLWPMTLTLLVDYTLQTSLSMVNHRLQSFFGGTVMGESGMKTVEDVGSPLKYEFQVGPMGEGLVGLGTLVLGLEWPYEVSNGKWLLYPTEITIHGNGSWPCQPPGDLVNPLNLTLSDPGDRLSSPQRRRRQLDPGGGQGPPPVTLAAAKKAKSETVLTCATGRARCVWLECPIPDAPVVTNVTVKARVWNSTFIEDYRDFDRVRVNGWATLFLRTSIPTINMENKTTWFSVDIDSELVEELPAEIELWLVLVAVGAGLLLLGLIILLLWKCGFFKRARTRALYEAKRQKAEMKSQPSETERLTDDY
# T2: human ITGa3 protein (human, UniProt P26006 33-991)
# T2 chain: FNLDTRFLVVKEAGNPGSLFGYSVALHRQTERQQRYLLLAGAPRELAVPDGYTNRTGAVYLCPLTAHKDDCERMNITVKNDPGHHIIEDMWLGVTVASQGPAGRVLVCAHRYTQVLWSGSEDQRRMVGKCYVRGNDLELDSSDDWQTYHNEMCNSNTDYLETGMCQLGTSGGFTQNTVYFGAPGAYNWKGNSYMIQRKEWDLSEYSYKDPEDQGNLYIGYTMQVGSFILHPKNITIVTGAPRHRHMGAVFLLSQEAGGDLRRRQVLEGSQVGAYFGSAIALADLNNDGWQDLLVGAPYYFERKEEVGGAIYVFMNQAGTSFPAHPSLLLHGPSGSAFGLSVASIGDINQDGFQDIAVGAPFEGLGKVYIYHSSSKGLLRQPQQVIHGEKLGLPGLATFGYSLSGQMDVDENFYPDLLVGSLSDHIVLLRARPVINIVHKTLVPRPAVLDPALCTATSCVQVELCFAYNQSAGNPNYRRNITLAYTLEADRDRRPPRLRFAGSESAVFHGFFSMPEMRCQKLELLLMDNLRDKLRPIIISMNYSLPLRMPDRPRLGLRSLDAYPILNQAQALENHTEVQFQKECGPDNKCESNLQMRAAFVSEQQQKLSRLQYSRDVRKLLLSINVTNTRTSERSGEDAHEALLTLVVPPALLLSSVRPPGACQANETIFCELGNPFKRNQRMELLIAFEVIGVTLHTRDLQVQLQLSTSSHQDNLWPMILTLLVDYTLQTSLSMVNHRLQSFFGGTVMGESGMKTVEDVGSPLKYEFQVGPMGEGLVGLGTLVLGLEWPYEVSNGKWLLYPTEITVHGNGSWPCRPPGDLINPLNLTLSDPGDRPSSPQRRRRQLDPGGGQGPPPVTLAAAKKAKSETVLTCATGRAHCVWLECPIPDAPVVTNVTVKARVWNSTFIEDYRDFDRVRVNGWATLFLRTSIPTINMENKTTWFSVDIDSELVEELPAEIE
# T3: human ITGa3 on human-derived cell lines (human, UniProt P26006 33-1051)
# T3 chain: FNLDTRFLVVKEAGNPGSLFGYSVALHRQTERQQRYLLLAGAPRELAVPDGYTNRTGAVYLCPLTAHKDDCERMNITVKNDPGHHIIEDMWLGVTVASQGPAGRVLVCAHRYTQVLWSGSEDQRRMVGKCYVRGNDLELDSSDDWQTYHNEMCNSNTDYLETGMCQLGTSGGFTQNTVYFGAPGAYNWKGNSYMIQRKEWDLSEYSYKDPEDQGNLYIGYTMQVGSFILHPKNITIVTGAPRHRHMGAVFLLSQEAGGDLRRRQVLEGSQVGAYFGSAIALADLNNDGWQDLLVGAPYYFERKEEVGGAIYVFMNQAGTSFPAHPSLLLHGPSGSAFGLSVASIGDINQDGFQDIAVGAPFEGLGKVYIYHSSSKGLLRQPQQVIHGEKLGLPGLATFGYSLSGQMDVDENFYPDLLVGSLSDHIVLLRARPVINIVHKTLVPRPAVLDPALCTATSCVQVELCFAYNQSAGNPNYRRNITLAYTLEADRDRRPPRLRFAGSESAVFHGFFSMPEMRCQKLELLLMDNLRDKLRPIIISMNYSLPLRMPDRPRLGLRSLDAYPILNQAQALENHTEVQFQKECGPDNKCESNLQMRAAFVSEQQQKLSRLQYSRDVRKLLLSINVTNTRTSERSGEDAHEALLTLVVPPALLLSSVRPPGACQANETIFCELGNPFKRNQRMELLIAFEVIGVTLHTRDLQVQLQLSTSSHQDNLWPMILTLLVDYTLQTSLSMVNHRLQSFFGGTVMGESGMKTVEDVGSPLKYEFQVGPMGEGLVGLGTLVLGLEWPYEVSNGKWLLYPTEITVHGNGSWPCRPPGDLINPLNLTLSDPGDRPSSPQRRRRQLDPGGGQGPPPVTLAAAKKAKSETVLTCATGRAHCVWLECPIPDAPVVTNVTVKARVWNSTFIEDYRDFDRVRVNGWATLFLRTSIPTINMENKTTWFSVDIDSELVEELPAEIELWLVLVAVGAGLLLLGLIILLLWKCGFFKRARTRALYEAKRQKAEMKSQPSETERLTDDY
# B1: anti-ITGa3 huVM2 Hc2T62G/Lc1 antibody (antibody, V domains shown)
# VH: QVQLVQSGAEVKKPGSSVKVSCKASGYTFTEYIIHWVRQAPGQGLEWIGWFYPESGSVKYNEGFKGRATITADKSTSTAYMELSSLRSEDTAVYYCARHEERDYYGYYAMDYWGQGTTVTVSS
# VL: DIQMTQSPSSLSASVGDRVTITCSASSSISSNYLHWYQQKPGKVPKLLIYRTSNLASGVPSRFSGSGSGTDYTLTISSLQPEDVATYYCQQGSSIPRFTSGGGTKVEIKR
# B2: ITGa3-VM2 (antibody, V domains shown)
# VH: EVQLQESGAELVKPGTSVRLSCKASGYTFTEYIIHWVKQRSGQGLEWIGWFYPESGSVKYNETFKGRATLTADKSSSTVYMELSRLTSEDSAVYFCARHEERDYYGYYAMDYWGQGTSVTVSS
# VL: DIVMTQTPTTLAASPGEKIIITCSASSSISSNYLHWYQQKPGFSPKLLIYRTSNLASGVPARFSGSGSGTSYSLTIGTMEAEDVATYYCQQGSSIPRFTSGSGTKLEIK
# B3: Lc1/Hc1S (VH of SEQ ID NO: 4 and VL of SEQ ID NO: 12) (antibody, V domains shown)
# VH: B1 VH with N61S, G63T, I70L
# VL: DIQMTQSPSSLSASVGDRVIITCSASSSISSNYLHWYQQKPGKVPKLLIYRTSNLASGVPSRFSGSGSGTDYTLTISSLQPEDVATYYCQQGSSIPRFTSGGGTKVEIK
# B4: Lc1/Hc2 (antibody, V domains shown)
# VH: B1 VH with G63T
# VL: B3 VL with I20T
# B5: Lc1/Hc1S (antibody, V domains shown)
# VH: B1 VH with N61S, G63T, I70L
# VL: B3 VL with I20T
# B6: Lc1/Hc1G (antibody, V domains shown)
# VH: B1 VH with I70L
# VL: B3 VL with I20T
# B7: Lc1/Hc1A (antibody, V domains shown)
# VH: B1 VH with G63A, I70L
# VL: B3 VL with I20T
# B8: Lc2/Hc2 (antibody, V domains shown)
# VH: B1 VH with G63T
# VL: B3 VL
# B9: Lc2/Hc2G (antibody, V domains shown)
# VH: B1 VH
# VL: B3 VL
# B10: Lc2/Hc1 (antibody, V domains shown)
# VH: B1 VH with G63T, I70L
# VL: B3 VL
# B11: Lc2/Hc1A (antibody, V domains shown)
# VH: B1 VH with G63A, I70L
# VL: B3 VL
# B12: Lc2/Hc2A (antibody, V domains shown)
# VH: B1 VH with G63A
# VL: B3 VL
# B13: Lc1/Hc1 (antibody, V domains shown)
# VH: B1 VH with G63T, I70L
# VL: B3 VL with I20T
# B14: Lc2/Hc2S (antibody, V domains shown)
# VH: B1 VH with N61S, G63T
# VL: B3 VL
# B15: Lc1/Hc2A (antibody, V domains shown)
# VH: B1 VH with G63A
# VL: B3 VL with I20T
# B16: Lc1/Hc2S (antibody, V domains shown)
# VH: B1 VH with N61S, G63T
# VL: B3 VL with I20T
# Biological target: T1, cynomolgus monkey ITGa3 on …
# Test: FACS; cyno primary kidney epithelial cells
row,Binder,Kd [nM]
1,B1,0.17

# Biological target: T2, human ITGa3 protein
# Test: ELISA; apparent Kd
row,Binder,Kd [nM]
1,B2,0.23
2,B3,0.18
3,B4,0.07
4,B5,0.18
5,B6,0.23
6,B7,0.32
7,B8,0.1
8,B9,0.18
9,B10,0.18
10,B11,0.23
11,B12,0.24
12,B1,0.18
13,B13,0.18
14,B14,0.24
15,B15,0.27
16,B16,0.32

# Biological target: T3, human ITGa3 on human-derived cell lines
# Test: FACS; human H292 cells
row,Binder,Kd [nM]
1,B1,0.27
